Reference: patent US20230242956A1, “POLYPHOSPHATE KINASE MUTANT, ENGINEERED STRAIN AND APPLICATION THEREOF” (ZHEJIANG UNIVERSITY OF TECHNOLOGY, priority 2022, published 2023)

Tests used:
[1] = substrate: Nc1ncnc2c1ncn2[C@@H]1O[C@H](COP(=O)(O)O)[C@@H](O)[C@H]1O; test: Kinetic parameters of wild-type ChPPK (pure enzyme, pseudo-one-substrate kinetic model, ATP by HPLC); type: biochemical, Cytophaga hutchinsonii; settings: other: substrate AMP, fixed PPA 1.6 g/L, AMP 0-5.0 mM, pH 7.5, 37° C.
Experimental: A PPK protein sequence derived from Cytophaga hutchinsonii (ChPPK, GenBank accession number: ABG57400.1) in GenBank was optimized for E. coli codon preference and fused to a C-terminal 6His tag. The resulting recombinant sequence of the gene ChPPK with a length of 930 bp was synthesized by Tsingke Biotechnology Co., Ltd. (Beijing, China), the nucleotide sequence is shown in SEQ ID NO: 1, and the amino acid sequence of the encoded protein is shown in SEQ ID NO: 2.
(2) Pure enzyme: 5 mL of the crude enzyme solution was diluted with 40 mL of potassium phosphate buffer (20 mM, pH 7.2), and then applied to a HisTrap HP purification column of GE Healthcare (10 mL column, pre-washed with a pH 7.2, 20 mM potassium phosphate buffer containing 500 mM NaCl). […] The concentration of the pure enzyme was determined by Beyotime BCA Protein Assay Kit(P0012), and the amount of the pure enzyme used in the following examples was calculated by protein content.
0.4 mg of the crude enzyme solution prepared by the method in Example 2 or 0.05 mg of the pure enzyme, polyphosphoric acid (PPA) at a final concentration of 1.6 g/L, adenosine phosphate (AMP) at a final concentration of 2.25 mM, and MgCl2 at a final concentration of 10 mM were added to 10 mL of 50 mM potassium phosphate buffer (pH 7.5). […] The ATP content in the solution was determined by HPLC method. […]
(§1) The wild-type Ecoli.BL21(DE3)-ChPPK constructed by the method of Example 1 and the engineered strain Ecoli.BL21(DE3)-ChPPK/A79G/S106C/I108F/L285P constructed by the method of Example 6 were used to prepare pure enzymes by the method of Example 2. Km and Kcat were calculated by pseudo-one-substrate kinetic model. […]

[2] = substrate: Nc1ncnc2c1ncn2[C@@H]1O[C@H](COP(=O)(O)O)[C@@H](O)[C@H]1O; test: Kinetic parameters of mutant ChPPK/A79G/S106C/I108F/L285P (pure enzyme, pseudo-one-substrate kinetic model, ATP by HPLC); type: biochemical, Cytophaga hutchinsonii; settings: other: substrate AMP, fixed PPA 1.6 g/L, AMP 0-5.0 mM, pH 7.5, 37° C.
Experimental: (2) Pure enzyme: 5 mL of the crude enzyme solution was diluted with 40 mL of potassium phosphate buffer (20 mM, pH 7.2), and then applied to a HisTrap HP purification column of GE Healthcare (10 mL column, pre-washed with a pH 7.2, 20 mM potassium phosphate buffer containing 500 mM NaCl). The resulting purification column was eluted with 100 mL of washing buffer (a pH7.2, 20 mM potassium phosphate buffer containing 500 mM sodium chloride and 50 mM imidazole) at a rate of 0.5 mL/min to remove the absorbed protein impurities, and then eluted with an elution buffer (a pH7.2, 20 mM potassium phosphate buffer containing 500 mM sodium chloride and 50 mM imidazole) at a speed of 0.5 mL/min to collect an elution solution containing the target protein. Then the elution solution containing the target protein was dialyzed in a dialysis bag (the MWCO of the dialysis bag was 14 KDa) with a pH7.2 of 20 mM potassium phosphate buffer for 48h, and the retentate was taken as pure enzyme. The concentration of the pure enzyme was determined by Beyotime BCA Protein Assay Kit(P0012), and the amount of the pure enzyme used in the following examples was calculated by protein content.
0.4 mg of the crude enzyme solution prepared by the method in Example 2 or 0.05 mg of the pure enzyme, polyphosphoric acid (PPA) at a final concentration of 1.6 g/L, adenosine phosphate (AMP) at a final concentration of 2.25 mM, and MgCl2 at a final concentration of 10 mM were added to 10 mL of 50 mM potassium phosphate buffer (pH 7.5). The reaction solution was incubated at 37° C. for 5 min, and then 10 mL of 0.2 M phosphoric acid solution was added to terminate the reaction. The ATP content in the solution was determined by HPLC method. […]
as §1

B1: Cytophaga hutchinsonii polyphosphate kinase (ChPPK), wild-type, C-terminal 6His tag, SEQ ID NO: 2 (Cytophaga hutchinsonii ATCC 33406) (protein)
chain: MATDFSKLSKYVETLRVKPKQSIDLKKDFDTDYDHKMLTKEEGEELLNLGISKLSEIQEKLYASGTKSVLIVFQAMDAAGKDGTVKHIMTGLNPQGVKVTSFKVPSKIELSHDYLWRHYVALPATGEIGIFNRSHYENVLVTRVHPEYLLSEQTSGVTAIEQVNQKFWDKRFQQINNFEQHISENGTIVLKFFLHVSKKEQKKRFIERIELDTKNWKFSTGDLKERAHWKDYRNAYEDMLANTSTKQAPWFVIPADDKWFTRLLIAEIICTELEKLNLTFPTVSLEQKAELEKAKAELVAEKSSDHHHHHH
B1 showed a Km [1] of 1660 ± 100 µM, a kcat [1] of 1.01 ± 0.05 s⁻¹ and a kcat/Km [1] of 610 M⁻¹ s⁻¹.

B2: Cytophaga hutchinsonii polyphosphate kinase (ChPPK) mutant A79G/S106C/I108F/L285P (parent SEQ ID NO: 2) (Cytophaga hutchinsonii ATCC 33406; … (protein)
chain: MATDFSKLSKYVETLRVKPKQSIDLKKDFDTDYDHKMLTKEEGEELLNLGISKLSEIQEKLYASGTKSVLIVFQAMDAGGKDGTVKHIMTGLNPQGVKVTSFKVPCKFELSHDYLWRHYVALPATGEIGIFNRSHYENVLVTRVHPEYLLSEQTSGVTAIEQVNQKFWDKRFQQINNFEQHISENGTIVLKFFLHVSKKEQKKRFIERIELDTKNWKFSTGDLKERAHWKDYRNAYEDMLANTSTKQAPWFVIPADDKWFTRLLIAEIICTELEKLNLTFPTVSPEQKAELEKAKAELVAEKSSDHHHHHH
B2 was tested, and the Km [2] was 1670 ± 180 µM, the kcat [2] was 16.3 ± 1.78 s⁻¹ and the kcat/Km [2] was 9780 M⁻¹ s⁻¹.
